Test results taken from patent publication US20070265350A1 (UNIVERSITY OF IOWA RESEARCH FOUNDATION, published 2007).

Molecular target: T1, His-Cdc42 (UniProt P60953 1-191, limits assumed)
T1 construct: Bought protein; also called His-tagged Cdc42; Cdc42-GTPγS; not shown: His tag
Assay: in vitro pull-down of immobilized His-Cdc42 (nucleotide analogs as indicated) with purified bovine SOD1, Western blot (FIG. 1B)
Experimental: Pull-down assays with GST- and His-tagged proteins. Dynabeads talon for histidine tagged proteins were washed with potassium phosphate buffer (PPHB) containing 100 mM KH₂PO₄, 10 mM NaCl, 0.25 mM MgCl₂ and 100 nM CaCl₂. […] The GTPases were either used directly or preloaded with either GTPγS or GDPβS and then washed. […] Samples were incubated at room temperature (RT) for 30 minutes with intermittent gentle agitation. […] The fourth wash was carried out in 50 mM Tris pH 6.8. Proteins were eluted using 20 μl 125 mM imidazole and samples were then mixed with SDS-PAGE reducing loading buffer and separated by SDS-PAGE for Western blotting.

T1 sequence (P60953 whole entry): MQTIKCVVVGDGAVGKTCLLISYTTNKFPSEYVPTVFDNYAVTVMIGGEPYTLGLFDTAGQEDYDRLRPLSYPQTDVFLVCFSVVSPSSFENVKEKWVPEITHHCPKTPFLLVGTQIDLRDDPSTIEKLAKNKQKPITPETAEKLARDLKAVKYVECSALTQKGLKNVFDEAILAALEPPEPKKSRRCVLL

B1: Bovine copper/zinc superoxide dismutase (SOD1), native (enzyme)
chain: not shown
notes: Native, metalated enzyme as bought; also called bovine SOD1; Bov.SOD1
binding result: no binding
